Patent US20100136030A1 (published 2010)

Tests used:
[1] = biological target: human OX40 receptor (CD134), full length, on the cell surface (human) (UniProt P43489); assay: cell-based or functional assay
[2] = biological target: T1, murine OX40 (form not stated) (mouse, UniProt P47741 20-211, limits assumed); assay: not described (observation cited in Example 8)
T1 sequence (looked up): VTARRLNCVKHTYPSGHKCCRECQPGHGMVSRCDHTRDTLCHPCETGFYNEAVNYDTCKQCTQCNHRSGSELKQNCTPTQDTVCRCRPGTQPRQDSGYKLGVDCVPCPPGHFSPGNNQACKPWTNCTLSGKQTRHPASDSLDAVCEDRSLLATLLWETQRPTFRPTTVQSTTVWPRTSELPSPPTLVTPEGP

[3] = biological target: T2, human OX40 (form used in the assay not stated) (human, UniProt P43489 29-214, limits assumed); assay: OX40 binding titration with OD readout (assay format and form of OX40 not described); x axis 'Log concentration, µg/ml Fab'
T2 sequence (looked up): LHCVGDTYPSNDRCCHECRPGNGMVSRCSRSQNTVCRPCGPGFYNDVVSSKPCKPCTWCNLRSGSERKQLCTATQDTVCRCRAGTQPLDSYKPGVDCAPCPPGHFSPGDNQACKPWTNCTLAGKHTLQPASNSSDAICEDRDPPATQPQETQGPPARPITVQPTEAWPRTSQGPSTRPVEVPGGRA

[4] = biological target: T2, human OX40 (form used in the assay not …); assay: Biacore, format not described

| Molecule | Kd [4] | koff [4] | kon [4] | also measured |
| --- | --- | --- | --- | --- |
| OX40 ligand (OX40L) on transfected mouse L fibroblasts | – | – | – | CMP Mean (n: 3), proliferation, Th17 cells + OX40L L-cells [1]: 66000 CPM; IFN-γ Conc (pg/ml), Th1 cells + OX40L L-cells [1]: 33000 pg/mL; IL2 (pg/ml), OX40-Hut-78 + OX40L-L-cells, no antibody [1]: 138 pg/mL; IL13 (pg/ml), OX40-Hut-78 + OX40L-L-cells, no antibody [1]: 620 pg/mL; IL-17 Conc (pg/ml), TH-17, CD4+ cells/OX40L L-cells [1]: 2260 pg/mL; Survivin expression (%), Th17 cells + OX40L L-cells [1]: 49%; TH17 Survival (%), Th17 + OX40L-L-cells [1]: 39.2%; Th1 Survival (%), naïve CD4+ T-cells + OX40L L-cells [1]: 65.9%; Th17 proliferation, fold against culture without OX40L costimulation [1]: 4 fold; Th-17 Survival (%), Th17 cells + OX40L L-cells [1]: 84.3% |
| humanized anti-OX40 antibody A10(TH)hu336F (antibody, V domains shown, also called humanized clone A10(TH)hu336F; 'humanized' A10 molecule) VH: QVQLVQSGAEVKKPGASVKVSCKASGYTFTSYWMHWVRQAPGQGLEWMGEIHPKSGNSNYNEKFKGRVTMTRDTSTSTVYMELSSLRSEDTAVYYCARGPEYSNFWFAYWGQGTLVTVSS VL: DIVLTQSPTSLAVSLGQRATISCKASQTVDYDGDSYMHWYQQKPGQPPKLLIYAASNLESGVPDRFSGSGSGTDFTLTISSLQAEDVAVYYCHQSNEDPWTFGQGTKVEIK | – | – | – | binding result [2]: no binding; EC50 (read off the curve) [3]: ~9 ng/mL |
| humanized A10 whole antibody A (A10 LC (SH) / A10 L70) (antibody, V domains shown) VH: QVQLVQSGAEVKKPGASVKVSCKASGYTFTSYWMHWVRQAPGQGLEWMGEIHPKSGNSNYNEKFKGRVTLTRDTSTSTVYMELSSLRSEDTAVYYCARGPEYSNFWFAYWGQGTLVTVSS VL: DIVMTQSPDSLAVSLGERATINCKASQSVDYDGDSYMHWYQQKPGQPPKLLIYAASNLESGVPDRFSGSGSGTDFTLTISSLQAEDVAVYYCHQSNEDPWTFGQGTKVEIK | 1.38 nM | 0.000179 s⁻¹ | 131000 M⁻¹ s⁻¹ | – |
| humanized A10 whole antibody B (A10 LC (SN) / A10 L70) (antibody, V domains shown) VH: QVQLVQSGAEVKKPGASVKVSCKASGYTFTSYWMHWVRQAPGQGLEWMGEIHPKSGNSNYNEKFKGRVTLTRDTSTSTVYMELSSLRSEDTAVYYCARGPEYSNFWFAYWGQGTLVTVSS VL: DIVMTQSPDSLAVSLGERATINCKASQSVDYDGDSYMNWYQQKPGQPPKLLIYAASNLESGVPDRFSGSGSGTDFTLTISSLQAEDVAVYYCHQSNEDPWTFGQGTKVEIK | 0.94 nM | 0.000156 s⁻¹ | 170000 M⁻¹ s⁻¹ | – |
| humanized A10 whole antibody C (A10 LC (TH) hu 336 / A10 L70) (antibody, V domains shown) VH: QVQLVQSGAEVKKPGASVKVSCKASGYTFTSYWMHWVRQAPGQGLEWMGEIHPKSGNSNYNEKFKGRVTLTRDTSTSTVYMELSSLRSEDTAVYYCARGPEYSNFWFAYWGQGTLVTVSS VL: DIVMTQSPDSLAVSLGERATINCKASQTVDYDGDSYMHWYQQKPGQPPKLLIYAASNLESGVPDRFSGSGSGTDFTLTISSLQAEDVAVYYCHQSNEDPWTFGQGTKVEIK | 1.44 nM | 0.000151 s⁻¹ | 116000 M⁻¹ s⁻¹ | – |
| humanized A10 whole antibody D (A10 LC (SH) / A10 humanized) (antibody, V domains shown, also called A10-D; A10 D) VH: QVQLVQSGAEVKKPGASVKVSCKASGYTFTSYWMHWVRQAPGQGLEWMGEIHPKSGNSNYNEKFKGRVTMTRDTSTSTVYMELSSLRSEDTAVYYCARGPEYSNFWFAYWGQGTLVTVSS VL: DIVMTQSPDSLAVSLGERATINCKASQSVDYDGDSYMHWYQQKPGQPPKLLIYAASNLESGVPDRFSGSGSGTDFTLTISSLQAEDVAVYYCHQSNEDPWTFGQGTKVEIK | 1.21 nM | 0.00017 s⁻¹ | 140000 M⁻¹ s⁻¹ | – |
| humanized A10 whole antibody E (A10 LC (SN) / A10 humanized) (antibody, V domains shown) VH: QVQLVQSGAEVKKPGASVKVSCKASGYTFTSYWMHWVRQAPGQGLEWMGEIHPKSGNSNYNEKFKGRVTMTRDTSTSTVYMELSSLRSEDTAVYYCARGPEYSNFWFAYWGQGTLVTVSS VL: DIVMTQSPDSLAVSLGERATINCKASQSVDYDGDSYMNWYQQKPGQPPKLLIYAASNLESGVPDRFSGSGSGTDFTLTISSLQAEDVAVYYCHQSNEDPWTFGQGTKVEIK | 1.25 nM | 0.000191 s⁻¹ | 151000 M⁻¹ s⁻¹ | – |
| humanized A10 whole antibody F (A10 LC (TH) hu 336 / A10 humanized) (antibody, V domains shown, also called A10-F; humanized variant A10-F) VH: QVQLVQSGAEVKKPGASVKVSCKASGYTFTSYWMHWVRQAPGQGLEWMGEIHPKSGNSNYNEKFKGRVTMTRDTSTSTVYMELSSLRSEDTAVYYCARGPEYSNFWFAYWGQGTLVTVSS VL: DIVLTQSPTSLAVSLGQRATISCKASQTVDYDGDSYMHWYQQKPGQPPKLLIYAASNLESGVPDRFSGSGSGTDFTLTISSLQAEDVAVYYCHQSNEDPWTFGQGTKVEIK | 1.12 nM | 0.000158 s⁻¹ | 141000 M⁻¹ s⁻¹ | – |
